Measured values reported in patent US20220204627A1 (WILLIAM ROBERT ARATHOON LIVING TRUST DATED AUGUST 29 2016, published 2022).
Changes are numbered by the printed parent chain. In names and notes the source's numbering stands. Values belong to the binder of their own block, whether it stands above or below them.

Experiments:
[1] = biological target: T1, human CD47-Fc fusion protein (R&D systems) (human, UniProt Q08722 19-141); experiment: ELISA, Fc-tagged CD47 coated on the plate
T1 construct: Bought (R&D systems); also called Fc-tagged CD47; not shown: Fc part of the bought fusion protein

[2] = biological target: T2, human P Glycoprotein (Pgp) / Multidrug resistance protein 1 (MDR1), gene ABCB1, on cells (human, UniProt P08183 1-1280); experiment: cell-based or functional assay
[3] = biological target: T2, human P Glycoprotein (Pgp) / Multidrug …; experiment: flow cytometry on 293T cells stably expressing human ABCB1 (293T_ABCB1_OX; the cells also carry CD47); 293T_ABCB1_OX cells: Pgp overexpressed, CD47 also present
[4] = biological target: T3, human CD47 on cells (human, UniProt Q08722 19-323); experiment: flow cytometry on human red blood cells (h408 RBC), Alexa Fluor 647 channel
T3 construct: also called KT14 (target name); leukocyte surface antigen CD47

[5] = biological target: T4, cynomolgus CD47 on erythrocytes (cynomolgus, UniProt A0A5F8AK49 19-323 (rhesus entry)); experiment: flow cytometry on cynomolgus red blood cells (cy807 RBC), Alexa Fluor 647 channel
T4 construct: whole, on cells; also called cynomolgus RBCs

[6] = biological target: T5, EGFR on 293T cells overexpressing EGFR (UniProt P00533 25-1210, limits assumed); experiment: FACS on 293T-EGFR OX cells
T5 construct: whole, on cells

[7] = biological target: T2, human P Glycoprotein (Pgp) / Multidrug …; experiment: FACS on 293T-B1OX cells (overexpressing MDR1)
[8] = biological target: T1, human CD47-Fc fusion protein (R&D …); experiment: ELISA, binding to CD47; parameters: Bmax: unit not given here
[9] = biological target: T1, human CD47-Fc fusion protein (R&D …); experiment: ELISA, plate coated with human CD47-Fc; parameters: Bmax: unit not given here
[10] = biological target: T2, human P Glycoprotein (Pgp) / Multidrug …; experiment: flow cytometry on 293T cells stably expressing human ABCB1 (293T_ABCB1_OX)
[11] = biological target: T1, human CD47-Fc fusion protein (R&D …); experiment: ELISA, binding to CD47; 15D3 HC with its own 15D3 LC (un-swapped control); ELISA
[12] = biological target: T2, human P Glycoprotein (Pgp) / Multidrug …; experiment: flow cytometry on 293T cells stably expressing human ABCB1 (293T_ABCB1_OX; the cells also carry CD47)
[13] = biological target: T1, human CD47-Fc fusion protein (R&D …); experiment: ELISA, plate coated with human CD47-Fc
[14] = biological target: T1, human CD47-Fc fusion protein (R&D …); experiment: ELISA, binding to CD47
[15] = biological target: T2, human P Glycoprotein (Pgp) / Multidrug …; experiment: FACS on 293T cells overexpressing MDR1 (column MDR1 FACS)

- Kd [1]: 1620 nM
B1: 15D3 IgG1 KK/5F9 IgG1 DD/UIC2 (bispecific antibody)
chain 1: not shown
chain 2: not shown
chain 3: DVVMTQTPRSLPVSLGDQASISCRSSQSLLHSNGNTYLHWYLQKPGQSPKLLIYKVSNRFSGVPDRFSGSGSGTDFTLKISRVEAEDLGVYFCSQSTHIPPWTFGGGTKLDIKRTVAAPSVFIFPPSDEQLKSGTASVVCLLNNFYPREAKVQWKVDNALQSGNSQESVTEQDSKDSTYSLSSTLTLSKADYEKHKVYACEVTHQGLSSPVTKSFNRGEC

- Vincristine IC50 (nM) on N6/ADR cells with antibody at 50 ug/mL [2]: 0.002 nM
- EC50 [3]: 75.5 nM
B2: Ab1 (15D3 IgG1 DD / KT14 IgG1 KK / MRK16 VL-Hz1) (bispecific antibody, V domains shown)
VH 1: EVKVVESGGVLVRPGGSLKLSCAASGFTFSRYTMSWVRQTPEKRLEWVATISSGGGNTYYPDSVKGRFTVSRDNAMSSLYLQMSSLRSEDTALYYCARYGAGDAWFAYWGQGTLVTVSA
VH 2: QVQLVQSGAEVKKPGASVKVSCKASGYTFTNYNMHWVRQAPGQRLEWMGTIYPGNDDTSYNQKFKDRVTITADTSASTAYMELSSLRSEDTAVYYCARGGYRAMDYWGQGTLVTVSS
VL: DIVMTQTPLSSPVTLGQPASISCRSSQSIVHSTGQTYLEWYQQRPGQPPRLLIYKISNRFSGVPDRFSGSGAGTDFTLKISRVEAEDVGVYYCFQASHFPRTFGQGTKLEIK
notes: Human IgG1 heavy chains with DD (K392D, K409D) on the 15D3 arm and KK (E356K, D399K) on the KT14 (5F9) arm; kappa light chain

- Vincristine IC50 (nM) on N6/ADR cells with antibody at 50 ug/mL [2]: 0.0461 nM
- Kd [1]: 145 nM
- R4 (percent of red blood cells in the positive gate R4) [4]: 0.609%
- R4 (percent of red blood cells in the positive gate R4) [5]: 0.483%
- binding result [5]: no binding
- EC50 [3]: 40.3 nM
B3: KBisP1.1 bispecific antibody (15D3 IgG1 DD/5F9 IgG1 KK/MRK16) (bispecific antibody, V domains shown)
VH 1: B2 VH 1
VH 2: B2 VH 2
VL: DVLMTQTPVSLSVSLGDQASISCRSSQSIVHSTGNTYLEWYLQKPGQSPKLLIYKISNRFSGVPDRFSGSGSGTDFTLKISRVEAEDLGVYYCFQASHFPRTFGGGTKLEIK
notes: 15D3 VH on human IgG1 with K392D and K409D (DD), 5F9 VH on human IgG1 with E356K and D399K (KK), EU numbering; also called KNJYBisP1.1; KBis1.1

- Bmax [8]: 3.1
- Kd [8]: 252 nM
B5: 15D3/5F9 (15D3 heavy chain with 5F9 light chain) (antibody, human IgG1, V domains shown)
VH: B2 VH 1
VL: DIVMTQSPLSLPVTPGEPASISCRSSQSIVYSNGNTYLGWYLQKPGQSPQLLIYKVSNRFSGVPDRFSGSGSGTDFTLKISRVEADVGVYYCFQGSHVPYTFGQGTKLEIK
notes: Light chain shuffle construct; human IgG1 / kappa constant regions

- Vincristine IC50 (nM) on N6/ADR cells with antibody at 50 ug/mL [2]: 0.0589 nM
- EC50 [12]: 137 nM
B9: Ab5 (15D3 HC-Hz1 DD hIgG1 / KT14 IgG1 KK / MRK16 VL-Hz1) (bispecific antibody, V domains shown)
VH 1: EVQLVESGGVVVQPGGSLRLSCAASGFTFSRYTMSWVRQAPGKGLEWVATISSGGGQTYYPDSVKGRFTVSRDNSKNSLYLQMNSLRTEDTALYYCARYGAGDAWFAYWGQGTLVTVSS
VH 2: B2 VH 2
VL: B2 VL
notes: Human IgG1 heavy chains with DD on the 15D3 arm and KK on the KT14 (5F9) arm; kappa light chain

- Bmax [8]: 3.45
- Kd [8]: 169 nM
B11: 15D3/UIC2 (15D3 heavy chain with UIC2 light chain) (antibody, human IgG1, V domains shown)
VH: B2 VH 1
VL: DVVMTQTPRSLPVSLGDQASISCRSSQSLLHSNGNTYLHWYLQKPGQSPKLLIYKVSNRFSGVPDRFSGSGSGTDFTLKISRVEAEDLGVYFCSQSTHIPPWTFGGGTKLDIK
notes: as for B5

- fold decrease in affinity against the un-swapped 15D3 control [14]: ~20 fold
- Bmax [8]: 3.94
- Kd [8]: 229 nM
B13: 15D3/MRK16 (anti-MDR1 antibody with two 15D3 heavy chains and two MRK16 light chains) (antibody, human IgG1, V domains shown)
VH: B2 VH 1
VL: B3 VL
notes: Human IgG1 / kappa constant regions; also called 15D3/MRK16 monoclonal; a15D3:MRK16 antibody

- Vincristine IC50 (nM) on N6/ADR cells with antibody at 50 ug/mL [2]: 0.734 nM
- EC50 [7]: 58.8 nM
- R4 (percent of red blood cells in the positive gate R4) [4]: 0.867%
- binding result [4]: no binding
- R4 (percent of red blood cells in the positive gate R4) [5]: 0.801%
- binding result [5]: no binding
B14: anti-MDR1 antibody MRK16 (recombinant, human IgG1/Kappa) (antibody, V domains shown)
VH: EVILVESGGGLVKPGGSLKLSCAASGFTFSSYTMSWVRQTPEKRLEWVATISSGGGNTYYPDSVKGRFTISRDNAKNNLYLQMSSLRSEDTALYYCARYYRYEAWFASWGQGTLVTVSA
VL: B3 VL

- binding result [15]: no binding
B15: UIC2 DD HC::cetuximab KK HC::MRK16 LC (bispecific antibody, V domains shown)
VH 1: AVQLQQSGPELVKTGASVKISCKASGYSFSNYYIHWVKQSHGKSLEWIGFISCYNGATFYNQKFKGKATFTVDTSSSTAYMKFNSLTFEDSAVYYCARLPIQFGNFYPMDYWGQGTSVTVSS
VH 2: not shown
VL: B3 VL
notes: DD / KK charge pair substitutions in the IgG1 heavy chains; common light chain

Continued, binder first:

B4: 15D3 DD HC::necitumumab KK HC::MRK16 LC (bispecific antibody, IgG1, V domains shown)
VH 1: B2 VH 1
VH 2: QVQLQESGPGLVKPSQTLSLICTVSGGSISSGDYYWSWIRQPPGKGLEWIGYIYYSGSTDYNPSLKSRVTMSVDTSKNQFSLKVNSVTAADTAVYYCARVSIFGVGTFDYWGQGTLVTVSS
VL: B3 VL
notes: DD = K392D and K409D, KK = E356K and D399K (EU) in the IgG1 heavy chains; common light chain; also called 15D3DD: necitumumab KK:MRK16; KT3-2KK 15D3DD 1MRK16
- EC50 [6]: 110 nM
- EC50 [7]: 33.1 nM

B6: 5F9/UIC2 (5F9 heavy chain with UIC2 light chain) (antibody, human IgG1, V domains shown)
VH: B2 VH 2
VL: B11 VL
notes: as for B5
- Bmax [9]: 3.08
- Kd [9]: 6.3 nM

B7: 5F9/M89 (5F9 heavy chain with M89 light chain) (antibody, human IgG1, V domains shown)
VH: B2 VH 2
VL: EIVLTQSPATLSLSPGERATLSCRASQSVGGSYLAWYQQKPGQAPRLLIYGASRRATGIPARFSGSGSGTDFTLTISSLQPEDFASYFCQQTNTFPLTFGGGTKVEIK
notes: as for B5
- Bmax [9]: 4.22
- Kd [9]: 1510 nM

B8: anti-MDR1 antibody 15D3 (recombinant, human IgG1/Kappa) (antibody, V domains shown)
VH: B2 VH 1
VL: B3 VL with V9L, S12P, I56V, V83L, A96G, K108R
notes: also called 15D3/15D3
- Bmax [8]: 3.2
- Vincristine IC50 (nM) on N6/ADR cells with antibody at 50 ug/mL [2]: 0.466 nM
- EC50 [7]: 25.1 nM
- EC50 [10]: 14.6 nM
- Kd [11]: 10.9 nM

B10: 5F9/15D3 (5F9 heavy chain with 15D3 light chain) (antibody, human IgG1, V domains shown)
VH: B2 VH 2
VL: B3 VL with V9L, S12P, I56V, V83L, A96G, K108R
notes: as for B5
- Bmax [9]: 2.96
- Kd [9]: 0.257 nM

B12: 5F9/MRK16 (anti-CD47 antibody with two 5F9 heavy chains and two MRK16 light chains) (antibody, human IgG1, V domains shown)
VH: B2 VH 2
VL: B3 VL
notes: Human IgG1 / kappa constant regions; also called KT14/MRK16 monoclonal; KT14_MRK16
- fold decrease in affinity against the un-swapped 5F9 control [13]: 100 fold
- Bmax [9]: 2.94
- Kd [9]: 0.17 nM
- R4 (percent of red blood cells in the positive gate R4) [4]: 0.708%
- R4 (percent of red blood cells in the positive gate R4) [5]: 0.717%
- binding result [5]: no binding
